Experimental findings from PMC2647316 (Nucleic Acids Research, 2008) are described below.

The target of data set [1] is T1, GkDnaC replicative helicase WT (Geobacillus kaustophilus HTA426, UniProt Q5KU75 1-454).
T1 sequence: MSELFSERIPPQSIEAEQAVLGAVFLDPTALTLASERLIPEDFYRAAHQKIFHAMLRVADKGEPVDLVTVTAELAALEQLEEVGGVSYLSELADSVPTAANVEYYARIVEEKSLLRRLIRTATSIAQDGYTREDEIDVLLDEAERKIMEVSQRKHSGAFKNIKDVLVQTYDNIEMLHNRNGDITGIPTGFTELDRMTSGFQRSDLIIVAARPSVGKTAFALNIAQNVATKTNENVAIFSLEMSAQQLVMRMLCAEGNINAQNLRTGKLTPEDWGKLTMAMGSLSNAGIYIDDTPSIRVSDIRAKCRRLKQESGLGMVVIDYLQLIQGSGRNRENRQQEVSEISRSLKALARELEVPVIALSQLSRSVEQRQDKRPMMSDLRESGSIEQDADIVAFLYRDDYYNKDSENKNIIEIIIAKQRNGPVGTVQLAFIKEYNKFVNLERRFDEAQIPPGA
The experiment in a line: X-ray crystal structure.

Data set [2] concerns the molecule itself. The experiment in a line: SEC. (Size exclusion chromatography separates by hydrodynamic size, large species first.)
Data set [3] concerns the molecule itself. Description: crystal structure.

B1: (dT)15 (ssDNA)
DNA: TTTTTTTTTTTTTTT
Turning to B1, in data set [1], the binding result was “binds”.

B2: GkDnaC R145K146A double mutant (enzyme, Geobacillus kaustophilus HTA426, UniProt Q5KU75 1-454, looked up)
chain: MSELFSERIPPQSIEAEQAVLGAVFLDPTALTLASERLIPEDFYRAAHQKIFHAMLRVADKGEPVDLVTVTAELAALEQLEEVGGVSYLSELADSVPTAANVEYYARIVEEKSLLRRLIRTATSIAQDGYTREDEIDVLLDEAEAAIMEVSQRKHSGAFKNIKDVLVQTYDNIEMLHNRNGDITGIPTGFTELDRMTSGFQRSDLIIVAARPSVGKTAFALNIAQNVATKTNENVAIFSLEMSAQQLVMRMLCAEGNINAQNLRTGKLTPEDWGKLTMAMGSLSNAGIYIDDTPSIRVSDIRAKCRRLKQESGLGMVVIDYLQLIQGSGRNRENRQQEVSEISRSLKALARELEVPVIALSQLSRSVEQRQDKRPMMSDLRESGSIEQDADIVAFLYRDDYYNKDSENKNIIEIIIAKQRNGPVGTVQLAFIKEYNKFVNLERRFDEAQIPPGA
For B2, the stoichiometry N (usually the number of molecules, sites or subunits per partner or assembly) in data set [2] was found to be 6.

B3: GkDnaC R344A (enzyme, Geobacillus kaustophilus HTA426, UniProt Q5KU75 1-454, looked up)
chain: MSELFSERIPPQSIEAEQAVLGAVFLDPTALTLASERLIPEDFYRAAHQKIFHAMLRVADKGEPVDLVTVTAELAALEQLEEVGGVSYLSELADSVPTAANVEYYARIVEEKSLLRRLIRTATSIAQDGYTREDEIDVLLDEAERKIMEVSQRKHSGAFKNIKDVLVQTYDNIEMLHNRNGDITGIPTGFTELDRMTSGFQRSDLIIVAARPSVGKTAFALNIAQNVATKTNENVAIFSLEMSAQQLVMRMLCAEGNINAQNLRTGKLTPEDWGKLTMAMGSLSNAGIYIDDTPSIRVSDIRAKCRRLKQESGLGMVVIDYLQLIQGSGRNRENRQQEVSEISASLKALARELEVPVIALSQLSRSVEQRQDKRPMMSDLRESGSIEQDADIVAFLYRDDYYNKDSENKNIIEIIIAKQRNGPVGTVQLAFIKEYNKFVNLERRFDEAQIPPGA
For B3, in data set [2], the “stoichiometry N” value came to 6.

B4: GkDnaC R117A (enzyme, Geobacillus kaustophilus HTA426, UniProt Q5KU75 1-454, looked up)
chain: MSELFSERIPPQSIEAEQAVLGAVFLDPTALTLASERLIPEDFYRAAHQKIFHAMLRVADKGEPVDLVTVTAELAALEQLEEVGGVSYLSELADSVPTAANVEYYARIVEEKSLLRALIRTATSIAQDGYTREDEIDVLLDEAERKIMEVSQRKHSGAFKNIKDVLVQTYDNIEMLHNRNGDITGIPTGFTELDRMTSGFQRSDLIIVAARPSVGKTAFALNIAQNVATKTNENVAIFSLEMSAQQLVMRMLCAEGNINAQNLRTGKLTPEDWGKLTMAMGSLSNAGIYIDDTPSIRVSDIRAKCRRLKQESGLGMVVIDYLQLIQGSGRNRENRQQEVSEISRSLKALARELEVPVIALSQLSRSVEQRQDKRPMMSDLRESGSIEQDADIVAFLYRDDYYNKDSENKNIIEIIIAKQRNGPVGTVQLAFIKEYNKFVNLERRFDEAQIPPGA
For B4, in data set [2], the “stoichiometry N” value is 6.

B5: GkDnaC R120A (enzyme, Geobacillus kaustophilus HTA426, UniProt Q5KU75 1-454, looked up)
chain: MSELFSERIPPQSIEAEQAVLGAVFLDPTALTLASERLIPEDFYRAAHQKIFHAMLRVADKGEPVDLVTVTAELAALEQLEEVGGVSYLSELADSVPTAANVEYYARIVEEKSLLRRLIATATSIAQDGYTREDEIDVLLDEAERKIMEVSQRKHSGAFKNIKDVLVQTYDNIEMLHNRNGDITGIPTGFTELDRMTSGFQRSDLIIVAARPSVGKTAFALNIAQNVATKTNENVAIFSLEMSAQQLVMRMLCAEGNINAQNLRTGKLTPEDWGKLTMAMGSLSNAGIYIDDTPSIRVSDIRAKCRRLKQESGLGMVVIDYLQLIQGSGRNRENRQQEVSEISRSLKALARELEVPVIALSQLSRSVEQRQDKRPMMSDLRESGSIEQDADIVAFLYRDDYYNKDSENKNIIEIIIAKQRNGPVGTVQLAFIKEYNKFVNLERRFDEAQIPPGA
As to B5, in data set [2], the “stoichiometry N” value was 6.

B6: GkDnaC K50A (enzyme, Geobacillus kaustophilus HTA426, UniProt Q5KU75 1-454, looked up)
chain: MSELFSERIPPQSIEAEQAVLGAVFLDPTALTLASERLIPEDFYRAAHQAIFHAMLRVADKGEPVDLVTVTAELAALEQLEEVGGVSYLSELADSVPTAANVEYYARIVEEKSLLRRLIRTATSIAQDGYTREDEIDVLLDEAERKIMEVSQRKHSGAFKNIKDVLVQTYDNIEMLHNRNGDITGIPTGFTELDRMTSGFQRSDLIIVAARPSVGKTAFALNIAQNVATKTNENVAIFSLEMSAQQLVMRMLCAEGNINAQNLRTGKLTPEDWGKLTMAMGSLSNAGIYIDDTPSIRVSDIRAKCRRLKQESGLGMVVIDYLQLIQGSGRNRENRQQEVSEISRSLKALARELEVPVIALSQLSRSVEQRQDKRPMMSDLRESGSIEQDADIVAFLYRDDYYNKDSENKNIIEIIIAKQRNGPVGTVQLAFIKEYNKFVNLERRFDEAQIPPGA
On to B6, for which the “stoichiometry N” value in data set [2] came out at 6.

B7: GkDnaC R332A (enzyme, Geobacillus kaustophilus HTA426, UniProt Q5KU75 1-454, looked up)
chain: MSELFSERIPPQSIEAEQAVLGAVFLDPTALTLASERLIPEDFYRAAHQKIFHAMLRVADKGEPVDLVTVTAELAALEQLEEVGGVSYLSELADSVPTAANVEYYARIVEEKSLLRRLIRTATSIAQDGYTREDEIDVLLDEAERKIMEVSQRKHSGAFKNIKDVLVQTYDNIEMLHNRNGDITGIPTGFTELDRMTSGFQRSDLIIVAARPSVGKTAFALNIAQNVATKTNENVAIFSLEMSAQQLVMRMLCAEGNINAQNLRTGKLTPEDWGKLTMAMGSLSNAGIYIDDTPSIRVSDIRAKCRRLKQESGLGMVVIDYLQLIQGSGRNAENRQQEVSEISRSLKALARELEVPVIALSQLSRSVEQRQDKRPMMSDLRESGSIEQDADIVAFLYRDDYYNKDSENKNIIEIIIAKQRNGPVGTVQLAFIKEYNKFVNLERRFDEAQIPPGA
With B7, the “stoichiometry N” value in data set [2] is 6.

B8: GkDnaC R145A (enzyme, Geobacillus kaustophilus HTA426, UniProt Q5KU75 1-454, looked up)
chain: MSELFSERIPPQSIEAEQAVLGAVFLDPTALTLASERLIPEDFYRAAHQKIFHAMLRVADKGEPVDLVTVTAELAALEQLEEVGGVSYLSELADSVPTAANVEYYARIVEEKSLLRRLIRTATSIAQDGYTREDEIDVLLDEAEAKIMEVSQRKHSGAFKNIKDVLVQTYDNIEMLHNRNGDITGIPTGFTELDRMTSGFQRSDLIIVAARPSVGKTAFALNIAQNVATKTNENVAIFSLEMSAQQLVMRMLCAEGNINAQNLRTGKLTPEDWGKLTMAMGSLSNAGIYIDDTPSIRVSDIRAKCRRLKQESGLGMVVIDYLQLIQGSGRNRENRQQEVSEISRSLKALARELEVPVIALSQLSRSVEQRQDKRPMMSDLRESGSIEQDADIVAFLYRDDYYNKDSENKNIIEIIIAKQRNGPVGTVQLAFIKEYNKFVNLERRFDEAQIPPGA
In the case of B8, the “stoichiometry N” value in data set [2] came to 6.

B9: Geobacillus kaustophilus HTA426 DnaC helicase, wild type (enzyme, UniProt Q5KU75 1-454, looked up)
chain: MSELFSERIPPQSIEAEQAVLGAVFLDPTALTLASERLIPEDFYRAAHQKIFHAMLRVADKGEPVDLVTVTAELAALEQLEEVGGVSYLSELADSVPTAANVEYYARIVEEKSLLRRLIRTATSIAQDGYTREDEIDVLLDEAERKIMEVSQRKHSGAFKNIKDVLVQTYDNIEMLHNRNGDITGIPTGFTELDRMTSGFQRSDLIIVAARPSVGKTAFALNIAQNVATKTNENVAIFSLEMSAQQLVMRMLCAEGNINAQNLRTGKLTPEDWGKLTMAMGSLSNAGIYIDDTPSIRVSDIRAKCRRLKQESGLGMVVIDYLQLIQGSGRNRENRQQEVSEISRSLKALARELEVPVIALSQLSRSVEQRQDKRPMMSDLRESGSIEQDADIVAFLYRDDYYNKDSENKNIIEIIIAKQRNGPVGTVQLAFIKEYNKFVNLERRFDEAQIPPGA
B9: the “stoichiometry N” value in data set [3] is 6.

B10: GkDnaC R330A (enzyme, Geobacillus kaustophilus HTA426, UniProt Q5KU75 1-454, looked up)
chain: MSELFSERIPPQSIEAEQAVLGAVFLDPTALTLASERLIPEDFYRAAHQKIFHAMLRVADKGEPVDLVTVTAELAALEQLEEVGGVSYLSELADSVPTAANVEYYARIVEEKSLLRRLIRTATSIAQDGYTREDEIDVLLDEAERKIMEVSQRKHSGAFKNIKDVLVQTYDNIEMLHNRNGDITGIPTGFTELDRMTSGFQRSDLIIVAARPSVGKTAFALNIAQNVATKTNENVAIFSLEMSAQQLVMRMLCAEGNINAQNLRTGKLTPEDWGKLTMAMGSLSNAGIYIDDTPSIRVSDIRAKCRRLKQESGLGMVVIDYLQLIQGSGANRENRQQEVSEISRSLKALARELEVPVIALSQLSRSVEQRQDKRPMMSDLRESGSIEQDADIVAFLYRDDYYNKDSENKNIIEIIIAKQRNGPVGTVQLAFIKEYNKFVNLERRFDEAQIPPGA
As for B10, the “stoichiometry N” value in data set [2] was determined as 6.
